Biological target: Flag-tagged NS5B (hepatitis C virus)
Test: cell-based or functional assay

In the case of “protein kinase C-related kinase 2 (PRK2) (from UniProt Q16513 1-984) (enzyme)”, the level of p-NS5B (32P-orthophosphate metabolic labeling, immunoprecipitation, autoradiography) after PRK2 silencing with siPRK2-1 is reported as 55%.

From patent US20170002361A1
